This is an account of results in patent US20180355009A1.

Values joined by “and” are separate entries in the source; they are usually repeats but may differ in a detail not shown here. Identical values can stand only once.

In the assay the target is human IL-22 receptor complex IL22R1 and IL10R2, overexpressed on HEK 293 cells (human) (UniProt Q8N6P7). The experiment in a line: cell-based or functional assay.
Chain of human IL-22 receptor complex IL22R1 and IL10R2, overexpressed on HEK 293 cells (human) (Q8N6P7 16-574, chain 1 of 2): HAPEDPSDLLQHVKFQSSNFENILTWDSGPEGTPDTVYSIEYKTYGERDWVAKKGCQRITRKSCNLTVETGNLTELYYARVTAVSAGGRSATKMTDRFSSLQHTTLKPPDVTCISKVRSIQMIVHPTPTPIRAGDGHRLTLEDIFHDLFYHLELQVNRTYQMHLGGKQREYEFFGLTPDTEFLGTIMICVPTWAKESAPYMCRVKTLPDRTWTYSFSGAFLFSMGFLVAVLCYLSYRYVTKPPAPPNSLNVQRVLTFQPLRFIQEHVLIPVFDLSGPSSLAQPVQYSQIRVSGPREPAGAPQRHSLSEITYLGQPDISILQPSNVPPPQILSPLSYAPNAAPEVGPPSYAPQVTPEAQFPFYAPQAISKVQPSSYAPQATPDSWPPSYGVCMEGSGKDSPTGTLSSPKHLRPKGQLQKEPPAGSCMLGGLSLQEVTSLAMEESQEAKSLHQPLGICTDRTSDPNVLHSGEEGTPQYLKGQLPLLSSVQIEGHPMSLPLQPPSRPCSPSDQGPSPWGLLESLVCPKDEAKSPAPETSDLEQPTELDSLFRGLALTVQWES
Chain of human IL-22 receptor complex IL22R1 and IL10R2, overexpressed on HEK 293 cells (human) (Q08334 20-325, chain 2 of 2, further chain): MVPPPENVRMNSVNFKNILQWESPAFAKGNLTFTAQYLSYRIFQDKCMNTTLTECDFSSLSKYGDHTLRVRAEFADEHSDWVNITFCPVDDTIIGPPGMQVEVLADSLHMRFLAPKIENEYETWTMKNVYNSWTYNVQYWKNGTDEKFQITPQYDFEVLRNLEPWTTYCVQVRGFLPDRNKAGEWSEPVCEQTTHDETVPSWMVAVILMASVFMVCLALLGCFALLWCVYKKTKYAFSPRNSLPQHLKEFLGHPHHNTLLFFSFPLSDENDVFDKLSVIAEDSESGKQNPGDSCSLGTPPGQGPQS

As to “native IL-22 protein produced in CHO cells (from UniProt Q9GZX6 34-179) (ligand)”, the potency in the STAT3 luciferase reporter assay, against the IL-22 Fc fusion proteins is 2 fold and 3 fold.
